Source: paper PMC5715787, “Structural basis for antibody recognition of the NANP repeats in Plasmodium falciparum circumsporozoite protein” (Proceedings of the National Academy of Sciences of the …, 2017)

T1: Ac-DPNANPNVDPNA-NH2 peptide (Plasmodium falciparum CSP repeat …)
T1 chain: Ac-DPNANPNVDPNA-NH2

T2: Ac-NPNVDPNANPNV-NH2 peptide (Plasmodium falciparum CSP repeat …)
T2 chain: Ac-NPNVDPNANPNV-NH2

B1: Fab317 (Fab, V domains shown)
VH: QMQLVESGGGVVQPGRSLRLSCTASGFTFSTYAMHWVRQSPGQGLQWVAVISYHSTNKYYEDSVRGRFTISRDNSKNTLYLQMNSLRAEDTAVYYCARDGYSSSFFDFWGQGTLVTVSS
VL: DIQMTQSPSTLSASVGDRVAITCRASQSISRWLAWYQQQPGKAPKLLMSGASVLESGVPSRFSGSGSGTEFTLTISSLQPDDFATYYCQHYNSYFVTFGQGTKVEIK
B2: Fab311 (Fab, V domains shown)
VH: QVQLVESGGGVVPPGRSLRLSCATSGFTFSNYGMHWVRQAPGKGLEWVAIIWYDGSRNFYAASVEGRFTISRDNSKNTLYLQMNSLRVEDTAVYYCARAAYYDTSGYGDYWGQGTLVTVSS
VL: QSVLTQPPSVSGAPGQTVTISCTGGSSNIGAGYDVHWYQQLPGTAPKLLIYGNINRPSGVPDRFSGSKSGTSASLAITGLQAEDEADYYCQSYDRRLSGSWVFGGGTKLTVL

How the values were obtained:
Assay in all cases: ITC; MicroCal Auto-iTC200; triplicate (or duplicate) experiments; details in SI
Settings in all cases: both partners purified
[1] = target: T1, Ac-DPNANPNVDPNA-NH2 peptide
[2] = target: T3, (NPNA)3 peptide, Ac-[residues removed]-NH2 (Plasmodium falciparum CSP repeat …)
T3 construct: also called 12-mer

(NPNA)2 peptide = (NPNA)2 peptide (Plasmodium falciparum CSP repeat …)
[3] = target: T2, Ac-NPNVDPNANPNV-NH2 peptide

Binder	Kd [1]	dH [1]	stoichiometry N [1]	Kd [2]	dH [2]	stoichiometry N [2]	Kd ((NPNA)2 peptide)	dH ((NPNA)2 peptide)	stoichiometry N ((NPNA)2 peptide)	Kd [3]	dH [3]	stoichiometry N [3]
B1	448 nM	-9.39 kcal/mol	1.64	78 nM	-15.7 kcal/mol	1.27	173 nM	-12.1 kcal/mol	1.41			
B2	1370 nM	-20.2 kcal/mol	1.2	305 nM	-29.8 kcal/mol	0.74	296 nM	-16.4 kcal/mol	1.5	1790 nM	-18.7 kcal/mol	1.24
